Data reported in article PMC7381364.

Key:
IL-18BP (Homo sapiens) = IL-18BP (Homo sapiens) (UniProt O95998); settings: cited from earlier work
[1] = target: mouse IL-18 binding protein (mouse) (UniProt Q9Z0M9); test: SPR
Sequence of mouse IL-18 binding protein (mouse) (Q9Z0M9 31-193): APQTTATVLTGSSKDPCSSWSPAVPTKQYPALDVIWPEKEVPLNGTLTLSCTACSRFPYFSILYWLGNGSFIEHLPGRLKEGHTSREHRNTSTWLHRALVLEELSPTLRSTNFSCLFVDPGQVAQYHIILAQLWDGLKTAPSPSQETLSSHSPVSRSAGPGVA

Sequence of IL-18BP (Homo sapiens) (O95998 31-194): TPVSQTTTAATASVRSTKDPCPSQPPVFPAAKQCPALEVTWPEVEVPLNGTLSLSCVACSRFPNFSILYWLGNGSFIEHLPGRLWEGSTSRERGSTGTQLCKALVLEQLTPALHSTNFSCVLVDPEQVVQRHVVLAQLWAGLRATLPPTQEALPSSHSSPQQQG
Sequence of IL-18 (Q14116 37-193): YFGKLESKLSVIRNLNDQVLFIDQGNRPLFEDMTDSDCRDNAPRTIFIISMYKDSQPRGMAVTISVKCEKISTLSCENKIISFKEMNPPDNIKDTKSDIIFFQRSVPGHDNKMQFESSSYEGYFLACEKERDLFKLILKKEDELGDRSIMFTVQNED

Kd [1] [µM]	Substance	Kd (IL-18BP (Homo sapiens)) [µM]
–	IL-18 (from UniProt Q14116)	< 0.001
> 10	decoy-resistant IL-18 variant CS2 (consensus sequence 2), DR-18 (from UniProt P70380 37-192) (ligand)	–
